Substrate: [Mg+2]
Experiment: purified protein, by the assay type
Details: fit to Hill equation

Protein	kcat (other: Wt. Ty1 RT) [s⁻¹]	kcat (other: D211N Ty1 RT) [s⁻¹]
wild-type Ty1 RT (Saccharomyces cerevisiae S288C) (protein) MESQQLSQHSHISHGSACASVTSKEVHTNQDPLDVSASKTEECEKASTKANSQQTTTPASSAVPENPHHASPQPASVPPPQNGPYPQQCMMTQNQANPSGWSFYGHPSMIPYTPYQMSPMYFPPGPQSQFPQYPSSVGTPLSTPSPESGNTFTDSSSADSDMTSTKKYVRPPPMLTSPNDFPNWVKTYIKFLQNSNLGGIIPTVNGKPVRQITDDELTFLYNTFQIFAPSQFLPTWVKDILSVDYTDIMKILSKSIEKMQSDTQEANDIVTLANLQYNGSTPADAFETKVTNIIDRLNNNGIHINNKVACQLIMRGLSGEYKFLRYTRHRHLNMTVAELFLDIHAIYEEQQGSRNSKPNYRRNLSDEKNDSRSYTNTTKPKVIARNPQKTNNSKSKTARAHNVSTSNNSPSTDNDSISKSTTEPIQLNNKHDLHLGQELTESTVNHTNHSDDELPGHLLLDSGASRTLIRSAHHIHSASSNPDINVVDAQKRNIPINAIGDLQFHFQDNTKTSIKVLHTPNIAYDLLSLNELAAVDITACFTKNVLERSDGTVLAPIVQYGDFYWVSKRYLLPSNISVPTINNVHTSESTRKYPYPFIHRMLAHANAQTIRYSLKNNTITYFNESDVDWSSAIDYQCPDCLIGKSTKHRHIKGSRLKYQNSYEPFQYLHTDIFGPVHNLPKSAPSYFISFTDETTKFRWVYPLHDRREDSILDVFTTILAFIKNQFQASVLVIQMDRGSEYTNRTLHKFLEKNGITPCYTTTADSRAHGVAERLNRTLLDDCRTQLQCSGLPNHLWFSAIEFSTIVRNSLASPKSKKSARQHAGLAGLDISTLLPFGQPVIVNDHNPNSKIHPRGIPGYALHPSRNSYGYIIYLPSLKKTVDTTNYVILQGKESRLDQFNYDALTFDEDLNRLTASYQSFIASNEIQESNDLNIESDHDFQSDIELHPEQPRNVLSKAVSPTDSTPPSTHTEDSKRVSKTNIRAPREVDPNISESNILPSKKRSSTPQISNIESTGSGGMHKLNVPLLAPMSQSNTHESSHASKSKDFRHSDSYSENETNHTNVPISSTGGTNNKTVPQISDQETEKRIIHRSPSIDASPPENNSSHNIVPIKTPTTVSEQNTEESIIADLPLPDLPPESPTEFPDPFKELPPINSHQTNSSLGGIGDSNAYTTINSKKRSLEDNETEIKVSRDTWNTKNMRSLEPPRSKKRIHLIAAVKAVKSIKPIRTTLRYDEAITYNKDIKEKEKYIEAYHKEVNQLLKMKTWDTDEYYDRKEIDPKRVINSMFIFNKKRDGTHKARFVARGDIQHPDTYDTGMQSNTVHHYALMTSLSLALDNNYYITQLDISSAYLYADIKEELYIRPPPHLGMNDKLIRLKKSHYGLKQSGANWYETIKSYLIKQCGMEEVRGWSCVFKNSQVTICLFVDDMILFSKDLNANKKIITTLKKQYDTKIINLGESDNEIQYDILGLEIKYQRGKYMKLGMENSLTEKIPKLNVPLNPKGRKLSAPGQPGLYIDQDELEIDEDEYKEKVHEMQKLIGLASYVGYKFRFDLLYYINTLAQHILFPSRQVLDMTYELIQFMWDTRDKQLIWHKNKPTEPDNKLVAISDASYGNQPYYKSQIGNIFLLNGKVIGGKSTKASLTCTSTTEAEIHAISESVPLLNNLSYLIQELNKKPIIKGLLTDSRSTISIIKSTNEEKFRNRFFGTKAMRLRDEVSGNNLYVYYIETKKNIADVMTKPLPIKTFKLLTNKWIH	0.000447 ± 8.89e-05	–
D211N Ty1 RT (Saccharomyces cerevisiae S288C; D1428N) (protein) AVKAVKSIKPIRTTLRYDEAITYNKDIKEKEKYIEAYHKEVNQLLKMKTWDTDEYYDRKEIDPKRVINSMFIFNKKRDGTHKARFVARGDIQHPDTYDTGMQSNTVHHYALMTSLSLALDNNYYITQLDISSAYLYADIKEELYIRPPPHLGMNDKLIRLKKSHYGLKQSGANWYETIKSYLIKQCGMEEVRGWSCVFKNSQVTICLFVDNMILFSKDLNANKKIITTLKKQYDTKIINLGESDNEIQYDILGLEIKYQRGKYMKLGMENSLTEKIPKLNVPLNPKGRKLSAPGQPGLYIDQDELEIDEDEYKEKVHEMQKLIGLASYVGYKFRFDLLYYINTLAQHILFPSRQVLDMTYELIQFMWDTRDKQLIWHKNKPTEPDNKLVAISDASYGNQPYYKSQIGNIFLLNGKVIGGKSTKASLTCTSTTEAEIHAISESVPLLNNLSYLIQELNKKPIIKGLLTDSRSTISIIKSTNEEKFRNRFFGTKAMRLRDEVSGNNLYVYYIETKKNIADVMTKPLPIKTFKLLTNKWIH	–	0.000444 ± 7.78e-05

From US7601489B2, “Manganese ion regulation of reverse transcriptase activity and methods of modulating same” (The Johns Hopkins University, priority 2002, dated 2009)
